Reference: US20030119077A1

What was measured:
[1] = target: cytokeratin protein; experiment: cytokeratin immunocytochemistry (CAM5.2-FITC) on fixed TSU-PRI cells; percent of cells stained
[2] = target: cytokeratin protein; experiment: cytokeratin immunocytochemistry (CAM5.2-FITC) on fixed DUMS cells; percent of cells stained
[3] = target: cytokeratin protein; experiment: cytokeratin immunocytochemistry (CAM5.2-FITC) on fixed LNCaP cells; percent of cells stained
[4] = target: cytokeratin protein; experiment: cytokeratin immunocytochemistry (CAM5.2-FITC) on fixed PC-3 cells; percent of cells stained

Measured: Percentage of positive staining

FITC conjugated Anti-Cytokeratin (CAM5.2) monoclonal antibody (Becton-Dickinson, Cat. 347653)
100%: all assays above
